Data from the nanobody polyreactivity screen of Harvey et al. (2022).

Test: yeast display, Sf9 membrane polyspecificity reagent, FACS + sequencing; frameworks hold sequencing errors
Outline: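 Galactose-induced (36–48 hours) yeast carrying a synthetic nanobody display library were exposed to 10% biotinylated, detergent-solubilized Sf9 membrane reagent at 4 °C for 1 hour. FACS followed streptavidin microbead enrichment, using low and high (top ~1%) gates for expression (anti-HA) and reagent binding (streptavidin). Colony PCR, MiSeq 2 × 250 sequencing and CDR-length filtering followed. Labels for polyreactivity reflect the gate of origin.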

Row | Sequence | polyreactivity (PSR sort gate)
1 | QVHLVESGGGLVQAGGSLRLSCAASASTYGSNSMGWYRQAPGKERELVAAITLPGASTYYADSVKGRFTISRDNAKNTVSLEMNSLKGEDTSVYSCAAQIHPRRDYSAFDYWGPGTQVTVSS | low polyreactivity
2 | QVQLEESGGGLVQAGGSLRLSCAASGFTFPTNAMGWYRQAPGKERELVATISLGAGSTHYADSVKGRFTISRDNAKNTVYLQMNSLKPEDTAVYYCAARSRRWYDYDYWGQGTQVTVSS | low polyreactivity
3 | QVQLVESGGGLVQAGGSLRLSCAASGRIFIYYAMGWDRQAPGKERELVAAISWGGGRTYYADSVKGRFTISRDNAKNTVYLQMNSLKPEDTAVYYCAAGVYTGQHEYDYWGQGTQVTVSS | low polyreactivity
4 | QVQLVESGGGLVQAGGSLRLSCAASGIIFYPYAMGWYRQAPGKESELVADITSGGGTNYAYSVKGRITISRDNAKNTVYLQMNSLKQEDTAVYYCAAEVRGYHWGTYYEFYYWGQGTQVTVSS | low polyreactivity
5 | QVQLVESGGGLVQAGGSLRLSCAASGSTFYPYAMGWYRQAPGKERELVAAISSGGSTSYADSVKGRFTISRENAKNTVYLQMNSLKPEDTAVYYCNASSPVAVPVYDYDYWGQGTQVTVSS | low polyreactivity
6 | QVQLVESGGGLVQAGGSLRLSCAASGSIFRRNGMGWYRQAPGKERELVAAITYRGGNTNYADSVKGRFTISRDNAKNTVYFQMNRLKPEDTAVYYCAADTYGWWYAFEYWGQGTQVKVSS | low polyreactivity
7 | QVQLVESGGGLVQAGGSLRLSCAASGNIFYWYAMGWYRQAPGKEREFVAAITRSGGSTSYADSVKGRFTISRDNAKNTVYLQMNSLKPEDTAVYYCNATHWVHFQEFYSWGPGTQVTVSS | low polyreactivity
8 | QVQLLESGGGLFQAGGSLRLSCAASGLTFYRYAMGWYRKAPGKERELVAAISFSGGSTYYADSVKGRFTISRDNAKNTVYLQMNSLKPEDTAVYYCAASSYPYGYDYWGQGTQVTVSS | high polyreactivity
9 | QVQLVESGGGLVQAGGSLRLSCAASGIIFDYYAMGWYRQAPGKERELVAAITTAGSTYYADSVKGRFTISRDNAKNTVYLQLNSLNPEDTAVYYCDAYLYSVRLGSYGYWGQGTQVTVSS | high polyreactivity
10 | QVQRVESGGGLVQAGGSLRLSCAASGSTLYGYALGWYRQAPGKERELVAAISVSGGRTYYADSVKGRFTISRDNAKNTVYLQMNSLKPEDTAVYYCAADGLSPYSGDYWGQGTQVTVSS | high polyreactivity
11 | QVQLVESGGRLVQAGGSLRLSCAASGRIIYGYAMGWYRQAPGKERELVATITWSGGSTYYADSVKGRFTISRDNAKNTVYLQMNSLKPEDTAVYYCAAYSPFIYQAYRYDYWGQGTLVTVSS | low polyreactivity
12 | QVQLVESGGGLVQAGGSLRLSCAASGITFTPNAMGWYRPAPGKEREFVAAITYSGGSTYYADSVKGRFTISRDNAKNTVYLQMNSLKPEDTAVYYCAAVYYLLYYEAYYYWGQGTQVTVSS | low polyreactivity
13 | QVQLVESGGGLVPAGGSLRLSCAASGSNFYWYVMGWYRQAPGKERELVADIRYSPGRTYYADSVKGRFTISRDNAKNTVYLQMNSLIPEDTAVYYCKARRRLFTVDFDYWGQGTQVTVSS | high polyreactivity
14 | QVQLVESGGGLVQAGGSLRLSCAASGRIFYGYTMGWYRPAPGKERELVAAISRYGGSTYYADSVKGRFTISRDNAKKTVYLQMNSLKPEDTAVYYCNAVYSRGYVIKPYDYWGQGTQVTVSS | high polyreactivity
15 | QVQLVESGGGLVQAGGSLRLSCAASGIIFWYYAMGWYRQAPGKERELVAAISSGGSTTYADSVKGRFTISRDNAKNTVYLQMNSLKPEDTAVYYCAAVWLSLFKVWVDTHEYDYWGQGTQVTVSS | low polyreactivity
16 | QVQLVESGGGLVQAGGSLRLSCAASGSTFILYAMGWYRQAPGKERELVAAISSDGSTYYADSVKGRFTISRDNAKNTVYLQMNSLKPEDTAVYYCAAYGYDADTGYDYWGLGTQVTVSS | low polyreactivity
17 | QVQLVESGGGLVQAGGSLRLSCAASGSTFRKYAMGWYRQAPGKERELVATISRGTSTYYADSVKGRFTISRDNAKNTVYLQMNSLKPEDTAVYYCNAGYYNKRDGGYTYNYWGQGTQVTVSS | low polyreactivity
18 | QVQLVESGGGLVQAGGRLRLSCAASGSTFSSNAMGWYRQAPGKERELVAAITTSGGSTYYADSVKGRFTISRDNAKTTVYLQMNSLKPEDTAVYYCAADLVHAYQWSIFLYGYWGQGTQVTVSS | low polyreactivity
19 | QVQLVESGGGLVQAGGSLRLSCAASGFIFYYYAMGWYRQAPGKERELVASISSSGGRTYYADSVKGRFTISRDNAKNTVYLQMNSLKPEDTAVYYCAARGPYGYDLLYYWGQGTQVTVSS | high polyreactivity
20 | QVHLVESGGGLVQAGGSLRLSCAASGFIFSFYGMGWSRHAPAKESELVAAISSGGTTYYADSVKGRFTISRDNAKNSVYLQMNSLKPEDTAVYYCAGRVARRTTSVFSYFSRYNYWGQGTQVSVSS | high polyreactivity
21 | QVQLVESGGGLVQAGGSLRLSCASSGFIFSSYAMGWYRQAPGKERELVARISLSGGSTFYADSVKGRFTISRDNAKNTVYFQMNSLKPEDTAVYYCAARDFSTHFSPMDYWGQGTQVTVSS | low polyreactivity
22 | QVQLVESGGGLVQAGGSLRLSCAASGLTFKFNAMGWYRQAPGKERELVAAITYSGGSTYYADSVKGRFTISRDNAKNTVYLQMNSLKPDDTAVYYCAAEGWWGYYRYNYWGQGTQVTVSS | high polyreactivity

Row | Sequence | polyreactivity (PSR sort gate)
23 | QVQLVESGGVLVQAGGSLRLSCAASGSTFWTNTMGWYRQAPGKERELVAAISRRGGTTYYADSVKGRFTISRDNAKNTVYLQMNSLKPEDTAVYYCATSLIGKTVPLRVYYWGQGTQVTVSS | high polyreactivity
24 | QVQLVESGGGLVQAGGSLRLSCAASGRTFEINAMGWYRQAPGKERELVAAITVSGGSTYYADSVKGRFTISRDNAKNTVYLQMNSLKPEDTAVYYCAVEIDYGQGKEVNSWGQGTQVTVSS | low polyreactivity
25 | QVQHEESGVGLVQAGGRLRVSCAASGSTFAANTMGWYRTAPGKERELVAAITVRGGSTYYADSVKGRFSISRDNAKNTVYLQMISLKPEDTAVYYCAAERPPYGYLVVGFVSTQYYYWGQGTQVTVSS | low polyreactivity
26 | QVQLVESGGGLVQAGGSLRLSCAASGLTFNYYDMGWYRQAPGKERELVAAISRSGTNTSYADSVKGRFTISRDNAKNTVYLQMNSLKPEDTAVYYCNAAGVYLAAGPYTANFNYNYWGQGTQVTVSS | low polyreactivity
27 | QVQLVESGGGLVQAGGSLRLSCAASGRIFNGNAMVWYRQAPGKERELVASINVRGGRTYYADSVKGRFTISRDNAKNTVYLQMNSLKPEDTAVYYWYADYAWYQRKSTVDYDYWGQVTQVTVSS | low polyreactivity
28 | QVQLVESGGGLVQAGGSLRLSCAASGSTFQFYAMRWYRQAPGKERDLVAAIRSSDDSTYYADSVKGRFTISRDNAKNTVYLQMKSLKPEDTAVYYCAAVLDFYGVWYDYWGQGTQVTVSS | high polyreactivity
29 | QVQLVESGGGLVQAGGSLRLSCAASGSIFRYNAMGWYRPAPGTERELVAAITSGDSTYYADSVKGRFTISRDNAKNTVYLHMNSLKPEDTAVYYCARRSYATYSFRFDYWGQGTQVTVSS | low polyreactivity
30 | QVQLVESGGGLVQAGGSLRLSCAASGSILGGNSMGWYRQATGKERVLVAAITFSGGGTYYADSVKGRFTISRDNAKKTVYLQMNSLKPEDSAVYYCAADKDGYTYEFDYWGQGTQVTVSS | low polyreactivity
31 | QVQLVESGGGLVQAGGSLRLSCAASGSTFDLYAMGWYRQAPGKERELVAAISSSGGRTYYADAVKGRFTISRDNAKNTVYLQMNSLKPEDTAVYDCAAVGYKYSRYDYWGQGTQVTVSS | high polyreactivity
32 | QVQLVESGGGLVQAGGSLRLSCAASGFTFRWYTMGWYRQAPGKERELVASIDWSGGSTYYADSVKGRFTITRDNAKNTVYLQMNSLKAEDTAVYYCNAGSDIFWSASTYGYWGQGTQVTVSS | high polyreactivity
33 | QVQLVESGGGLVQAGGSLRLSCAASGSTFSTNVMGWYRQAPGKERELVAAISTIGGSTYADSVKGRFTISRDNAKNTVYLQMNSLKPEDTAVYYCAAVFRVRRKTYGYWGQGTQVTVSS | high polyreactivity
34 | QVQLVESGGGLVQAGGSLRLRCAASGRTFRYYAMGWYRQAPGKERELVAVINYRGGSTYYADSVKGRFTISRDNEKNTVYLQMNSLKPEDTAVYYCAAQYIGWHLYWYDYWGQGTQVTVSS | low polyreactivity
35 | QVQLVESGGGLVQAGGSLRLSCAASGLIFGWNARGWYRQAPGKERELVAAINSGGITNYADSVKGRFTISRDNAKNTVYFQMNWLKPEDTAVYYCAADVVQYGLDWYGEEYESWGQGTQVTVSS | low polyreactivity
36 | QVQLVESGGGLVQAGGSLRLSCAASGFTFHYYDMGWYRQAPGKERELVATISQSGTSTYYADSVKGRFTISRDNAKNSVYLQMHSLKPEDTAVYYCAADYIGYWYGYYWYEYWGQGTQVTVSS | low polyreactivity
37 | QVQLVESGGGLVQAGGSLRLSCAASGIIFGNYAMGWYRQEPGKERELVATITWRGGSTYYADSVKGRFTISRDNAKNTVYLQMISLKPEDTAVYYCARPYASYRSFYYYGYWGQGTQVTVSS | high polyreactivity
38 | QVQLVESGGCLVKAGGSLRLSSAASGSTFYYYAMGWYRQAPGKERELVAAITVNGGSTYYADSVKGRFTISRDNANNTVYLQMNSLKPGVTAVYYCAADDTYWVYPYTYSTYEYWGQGNQVTVSS | low polyreactivity
39 | QVQLVESGGGLVQAGGSLRLSCAASGSIFVIYAMGWYRQAPGKERELVAAISRSGGRTYYADSVKGRFTISRDNAKNTVYLQMNSLKPEDTAVYYCAAEGSTYQGAPGVYYWGQGTQVTVSS | high polyreactivity
40 | QVQLVESGGGLVQAGGSLRLSCAASGRIFVYYAMGWYRQAPGKERELVAAITYSVDSTYYADSVKGRFTISRDNAKNTVYLQMNSLKPEDTAVYYCATDVDLAYGYQYEYWGQGTQVTVSS | low polyreactivity
41 | QVQLVESGGGLFQAGGSLRLSCAASGFTFVYYAMGWYRQAPGKERELVASISGGGRTYYADSVKGRFTISRENAKNTGYLQMNSLIPEDTAVYYCAARYWDYRNRWLYVYWGQGTQLTVSS | high polyreactivity
42 | QVQLVESGGGLVQAGGSLLLSCAASGGTFRNNAMGWYRQAPVKERELVAAISSSGTSTYYADSVKGRFTISRDNVKNTVYLQMNSLKPEDTAVYYCNADALGSPWWDHMDYWGQGTQVTVSS | low polyreactivity
43 | QVQLVESGGGLVQAGGSLRLSCAASGSILTVYAMGWYRQAPGKERELVAAITSSGGITYYADSVKGRFTISRDNAKNTVYLQMHSLKPEDTAVYYCAAYGYGSNYRYTGYYYWGQGTQVTVSS | low polyreactivity
